Our source for the Kd values is publication PMC12149299 (2025).

The term Kd denotes the free concentration of one partner at which half of the binding sites on the other are occupied at equilibrium, for simple one-to-one binding.

For test [1], the target named is HIV-1 gp120 protein from the YU2.DG strain (HIV-1, UniProt P35961 32-498). The test can be described thus: BLI. On the technique in general: In BLI a coated tip is dipped into the sample, and binding shifts an interference pattern.
Test [2] concerns the target HIV-1 gp120 protein from the JRCSF.JB strain (HIV-1, UniProt P20871 32-503). Put plainly: BLI.

B1: FD22 (antibody)
chain 1: QVQLSQSGGGAVQPGKSLTLSCRAYGFHLFSYVVVWVRQTPQNGLEWVAGAASGGWPQEFMNSVRGRFSISRDDYTVSLQMNALRVDDSGLYFCAQERGLHRLDGAVKFGRWFRAWGQGSQVVVTS
chain 2: QSALTQPASVSGSPGQSITLSCTGADNSVSWYQVVPGRAPKLLIFEVNVRPSEVSDRFSGSKSGDTASLTISRLQIEDESDYYCVTRRGDVTYLFGSGTRVSVL
modifications: biotin (EZ-Link NHS-LC-Biotin) in the competition ELISA only | biotin (EZ-Link NHS-LC-Biotin) in the competition ELISA only
B1: the Kd in test [1] was determined as 12.1 nM; in test [2] it was 18.1 nM.
